Reference: patent US20260035450A1 (Novo Nordisk, published 2026)
Substitutions are numbered along the chain they refer to.

T1: recombinant human ANGPTL3 (rhANGPTL3) (SEQ ID NO:1) (human, UniProt Q9Y5C1 17-460)
T1 sequence: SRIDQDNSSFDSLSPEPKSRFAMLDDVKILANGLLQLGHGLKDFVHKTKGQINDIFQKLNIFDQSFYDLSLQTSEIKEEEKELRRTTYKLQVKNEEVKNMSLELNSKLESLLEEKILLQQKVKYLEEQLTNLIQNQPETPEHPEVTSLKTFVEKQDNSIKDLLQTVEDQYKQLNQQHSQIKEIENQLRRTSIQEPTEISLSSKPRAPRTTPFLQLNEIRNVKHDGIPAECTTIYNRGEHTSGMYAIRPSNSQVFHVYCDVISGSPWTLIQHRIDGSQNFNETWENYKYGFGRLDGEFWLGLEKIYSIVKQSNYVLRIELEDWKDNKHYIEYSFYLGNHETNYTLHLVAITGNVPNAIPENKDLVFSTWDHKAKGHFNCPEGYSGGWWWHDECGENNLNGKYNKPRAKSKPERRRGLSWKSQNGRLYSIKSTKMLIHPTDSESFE

B1: tmAb1 (antibody, human IgG1, kappa)
heavy: EVQLLESGGGLVQPGGSLRLSCAASGFNFRSYWMTWVRQAPGKGLEWVSSISSHSTYIYYADSVKGRFTISRDNSKNTLYLQMNSLRAEDTATYYCAREGWYDNWFDPWGQGTLVTVSSASTKGPSVFPLAPSSKSTSGGTAALGCLVKDYFPEPVTVSWNSGALTSGVHTFPAVLQSSGLYSLSSVVTVPSSSLGTQTYICNVNHKPSNTKVDKKVEPKSCDKTHTCPPCPAPEYLGGDSVFLFPPKPKDVLYITREPEVTCVVIDVSHEDPEVKFNWYVDGVEVHNAKTKPREEQYNSTYRVVSVLPVLHRDWLNGKEYKCKVSNKALPKPIEKTISKAKGQRREPQVYTLPPSREEMTKNQVSLWCLVKGFYPSDIAVEWESNGQPENNYKTTPPVLDSDGSFFLYSKLTVDKSRWQQGNVFSCSVMHEALHNHYTQKSLSLSP
chain: DKTHTCPPCPAPEYLGGDSVFLFPPKPKDVLYITREPEVTCVVIDVSHEDPEVKFNWYVDGVEVHNAKTKPREEQYNSTYRVVSVLPVLHRDWLNGKEYKCKVSNKALPKPIEKTISKAKGQRREPQVYTLPPSREEMTKNQVSLSCAVKGFYPSDIAVEWESNGQPENNYKTTPPVLDSDGSFFLVSKLTVDKSRWQQGNVFSCSVMHEALHNHYTQKSLSLSP
light: EIVLTQSPGTLSLSPGERATLSCRASQNIRSPYLAWYQQKPGQAPRLLIYGVSSRAAGIPDRFSGSGSGTDFTLTISRLEPEDFAVYYCQQYDDHPYTFGQGTKLEIKRTVAAPSVFIFPPSDEQLKSGTASVVCLLNNFYPREAKVQWKVDNALQSGNSQESVTEQDSKDSTYSLSSTLTLSKADYEKHKVYACEVTHQGLSSPVTKSFNRGEC
B2: tmAb4 (antibody, human IgG1, kappa)
heavy: B1 heavy with R30E, F106N
chain: B1 chain
light: B1 light
B3: tmAb3 (antibody, human IgG1, kappa)
heavy: B1 heavy with R30E
chain: B1 chain
light: B1 light
B4: tmAb2 (antibody, human IgG1, kappa)
heavy: B1 heavy with G26D
chain: B1 chain
light: B1 light

What follows are binders tested against T1, recombinant human ANGPTL3 (rhANGPTL3) … (assay: cell-based or functional assay).

Row | Binder | Average relative IC50 (inhibition of rhANGPTL3-mediated LPL inhibition)
1 | B1 | 3.7 relative to evinacumab SIA
2 | B2 | 1.3 relative to evinacumab SIA
3 | B3 | 4.8 relative to evinacumab SIA
4 | B4 | 2.5 relative to evinacumab SIA
